From publication PMC11429640 come the findings set out here.

For the assay, the target named is high-stability mutant of the MMP-9 catalytic domain (MMP9CAT*) lacking the fibronectin-like domain (human) (UniProt P14780). Nature of the assay: enzyme activity inhibition assay (fluorogenic substrate, fit to the Morrison equation); apparent Ki (Ki^app); varying concentrations of N-TIMP2 incubated with 0.26 nM MMP-9CAT* for 60 min at 37 °C in 50 mM Tris-HCl, 0.15 M NaCl, 10 mM CaCl2, 0.02% Brij-35 pH 7.5; then 7.5 µM fluorogenic substrate; at least three assays for each protein.
UniProt P14780, sequence (P14780 other isoform, or with tags, fused parts or gaps mutant): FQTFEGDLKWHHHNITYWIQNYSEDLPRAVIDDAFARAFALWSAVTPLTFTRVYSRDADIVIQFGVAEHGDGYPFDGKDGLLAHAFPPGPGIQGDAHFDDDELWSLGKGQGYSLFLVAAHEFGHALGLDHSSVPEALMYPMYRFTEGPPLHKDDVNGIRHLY

In the case of “WT N-TIMP2 containing internal FLAG-tag, c-myc-tag, and His-tag (domain or fragment)”, the Ki turned out to be 0.32 nM.
